This note sets out measurements from patent US20180237534A1 (Bristol-Myers Squibb, published 2018).

Experiment [1] deals with T1, human OX40, membrane-bound (human, UniProt P43489 29-277).
T1 sequence: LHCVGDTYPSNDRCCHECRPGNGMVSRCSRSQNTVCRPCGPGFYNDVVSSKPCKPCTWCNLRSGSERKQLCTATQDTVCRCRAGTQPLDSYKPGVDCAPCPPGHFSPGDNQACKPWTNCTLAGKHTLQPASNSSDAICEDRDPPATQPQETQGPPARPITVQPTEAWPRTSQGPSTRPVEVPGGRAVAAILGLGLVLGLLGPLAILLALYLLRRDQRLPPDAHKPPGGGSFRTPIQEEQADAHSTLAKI
Kind of experiment: FACS on activated primary human CD4+/CD25+ T cells, purified recombinant antibody, APC GMFI. The method, then: Cells were activated for several days before the binding assay in order to induce OX40 expression. Briefly, PBMCs were cultured for three or four days with magnetic beads coated with anti-human CD3 plus anti-human CD28, in the presence of recombinant human IL-2. On the day of the assay, the beads were removed and the cells stained with a titration of each anti-OX40 antibody. Bound antibodies were detected with a fluorescently conjugated anti-human IgG polyclonal secondary antibody, and the cells were co-stained for CD4 and CD25 to detect activated CD4 T cells. The fluorescence intensity of the staining was measured using a FACSCanto II flow cytometer (Becton Dickinson). The geometric mean fluorescence intensity (GMFI) or median fluorescence intensity (MedFI) of anti-OX40 antibody staining was calculated for the CD4+CD25+ population (FACSDiva software). EC₅₀s for antibody binding were calculated using GraphPad Prism software.

Experiment [2] has as its target T2, cynomolgus OX40, membrane-bound (cynomolgus monkey, UniProt P43489 29-277 (human entry)).
T2 construct: also called cynoOX40-CHO
T2 chain: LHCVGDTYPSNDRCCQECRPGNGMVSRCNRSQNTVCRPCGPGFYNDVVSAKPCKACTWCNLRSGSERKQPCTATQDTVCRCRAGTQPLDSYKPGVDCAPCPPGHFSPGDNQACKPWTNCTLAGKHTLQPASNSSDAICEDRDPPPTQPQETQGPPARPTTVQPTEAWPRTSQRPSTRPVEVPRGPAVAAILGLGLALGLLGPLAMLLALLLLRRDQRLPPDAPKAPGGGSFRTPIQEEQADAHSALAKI
Kind of experiment: FACS on activated primary cynomolgus CD4+/CD25+ T cells, purified recombinant antibody, APC GMFI. The method, then:
Briefly, cells were activated for several days before the binding assay in order to induce OX40 expression. Total leukocytes were isolated from cynomolgus macaque peripheral blood by lysis of red blood cells using an ammonium chloride buffer. The leukocytes were then cultured for four to five days with in flasks pre-coated with anti-human CD3 plus anti-human CD28 antibodies that cross-react with cynomolgus macaque, in the presence of recombinant human IL-2, in order to expand and activate T cells. On the day of the assay, the cells were harvested and stained with a titration of each anti-OX40 antibody. Bound antibodies were detected with a fluorescently conjugated anti-human IgG polyclonal secondary antibody, and the cells were co-stained for CD4 and CD25 to detect activated CD4 T cells. The fluorescence intensity of the staining was measured using a FACSCanto II flow cytometer (Becton Dickinson). The geometric mean fluorescence intensity (GMFI) or median fluorescence intensity (MedFI) of anti-OX40 antibody staining was calculated for the CD4+CD25+ population (FACSDiva software). Dose-response curves were generated and EC50s for antibody binding were calculated using GraphPad Prism software.
The same experiment was performed with anti-OX40 antibodies with variable region substitutions.

B1: OX40.6 (antibody, human IgG1, kappa, V domains shown)
VH: EVQLVQSGGGLVQPGGSLRLSCAGSGFTFSNYAMYWVRQAPGKGLEWVSAIGIGGDTFYTDSVKGRFTISRDNAKNSLSLQMNSLRAEDTAVYYCARMGTGYFFDYWGQGTLVTVSS
VL: EIVLTQSPATLSLSPGERATLSCRASQSVSSYLAWYQQKPGQAPRLLIYDASNRATGIPARFSGSGSGTDFTLTISSLEPEDFAVYYCQQRSNWPLTFGPGTKVDIKR
notes: g1f; 23H3 with VH-H13Q/M87T
Turning to B1, the “EC50 (read off the curve)” value in experiment [1] and in experiment [2] was about 0.1 nM each time.
